PMC9758056

Molecular target: Taxol-stabilized microtubules from porcine brain tubulin, P02550
Test: microtubule pelleting assay
Details: chain shown with the change;, read off a plot

Chain of Taxol-stabilized microtubules from porcine brain tubulin, P02550 (P02550 other isoform, or with tags, fused parts or gaps, chain 1 of 2): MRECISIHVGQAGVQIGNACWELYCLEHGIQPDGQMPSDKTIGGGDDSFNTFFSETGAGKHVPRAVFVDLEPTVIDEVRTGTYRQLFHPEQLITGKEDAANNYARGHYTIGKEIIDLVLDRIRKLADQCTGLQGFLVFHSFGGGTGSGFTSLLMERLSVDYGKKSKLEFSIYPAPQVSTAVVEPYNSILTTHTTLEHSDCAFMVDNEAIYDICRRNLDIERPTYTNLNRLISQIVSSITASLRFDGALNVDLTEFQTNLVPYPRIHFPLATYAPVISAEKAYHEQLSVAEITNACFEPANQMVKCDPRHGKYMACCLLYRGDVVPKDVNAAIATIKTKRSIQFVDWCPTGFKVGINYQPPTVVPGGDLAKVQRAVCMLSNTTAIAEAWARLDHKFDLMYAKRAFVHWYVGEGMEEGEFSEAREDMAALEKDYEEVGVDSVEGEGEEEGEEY
Chain of Taxol-stabilized microtubules from porcine brain tubulin, P02550 (chain, as listed by the source, chain 2 of 2): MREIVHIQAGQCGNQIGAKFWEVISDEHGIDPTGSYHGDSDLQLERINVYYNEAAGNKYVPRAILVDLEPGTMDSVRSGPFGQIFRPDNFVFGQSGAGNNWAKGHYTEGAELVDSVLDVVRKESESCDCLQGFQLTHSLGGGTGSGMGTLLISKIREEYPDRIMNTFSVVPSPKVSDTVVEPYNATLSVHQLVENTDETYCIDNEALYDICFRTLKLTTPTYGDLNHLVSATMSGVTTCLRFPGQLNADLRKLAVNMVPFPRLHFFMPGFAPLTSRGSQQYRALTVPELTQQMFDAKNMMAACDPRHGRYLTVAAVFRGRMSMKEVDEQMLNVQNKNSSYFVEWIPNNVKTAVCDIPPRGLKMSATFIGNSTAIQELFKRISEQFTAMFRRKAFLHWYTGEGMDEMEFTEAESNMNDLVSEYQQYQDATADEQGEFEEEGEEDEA

| Binder | response (fraction microtubule bound) (parent: est. 0.78) | response (fraction microtubule bound) (parent: est. 0.70) |
| --- | --- | --- |
| LRRK2^RCKW (catalytic half of LRRK2: ROC, COR, kinase and WD40 domains), wild type, Q5S007 S2345D (protein) KKAVPYNRMKLMIVGNTGSGKTTLLQQLMKTKKSDLGMQSATVGIDVKDWPIQIRDKRKRDLVLNVWDFAGREEFYSTHPHFMTQRALYLAVYDLSKGQAEVDAMKPWLFNIKARASSSPVILVGTHLDVSDEKQRKACMSKITKELLNKRGFPAIRDYHFVNATEESDALAKLRKTIINESLNFKIRDQLVVGQLIPDCYVELEKIILSERKNVPIEFPVIDRKRLLQLVRENQLQLDENELPHAVHFLNESGVLLHFQDPALQLSDLYFVEPKWLCKIMAQILTVKVEGCPKHPKGIISRRDVEKFLSKKRKFPKNYMSQYFKLLEKFQIALPIGEEYLLVPSSLSDHRPVIELPHCENSEIIIRLYEMPYFPMGFWSRLINRLLEISPYMLSGRERALRPNRMYWRQGIYLNWSPEAYCLVGSEVLDNHPESFLKITVPSCRKGCILLGQVVDHIDSLMEEWFPGLLEIDICGEGETLLKKWALYSFNDGEEHQKILLDDLMKKAEEGDLLVNPDQPRLTIPISQIAPDLILADLPRNIMLNNDELEFEQAPEFLLGDGSFGSVYRAAYEGEEVAVKIFNKHTSLRLLRQELVVLCHLHHPSLISLLAAGIRPRMLVMELASKGSLDRLLQQDKASLTRTLQHRIALHVADGLRYLHSAMIIYRDLKPHNVLLFTLYPNAAIIAKIADYGIAQYCCRMGIKTSEGTPGFRAPEVARGNVIYNQQADVYSFGLLLYDILTTGGRIVEGLKFPNEFDELEIQGKLPDPVKEYGCAPWPMVEKLIKQCLKENPQERPTSAQVFDILNSAELVCLTRRILLPKNVIVECMVATHHNSRNASIWLGCGHTDRGQLSFLDLNTEGYTSEEVADSRILCLALVHLPVEKESWIVSGTQSGTLLVINTEDGKKRHTLEKMTDSVTCLYCNSFSKQSKQKNFLLVGTADGKLAIFEDKTVKLKGAAPLKILNIGNVSTPLMCLSESTNSTERNVMWGGCGTKIFSFSNDFTIQKLIETRTSQLFDYAAFSDSNIITVVVDTALYIAKQNSPVVEVWDKKTEKLCGLIDCVHFLREVMVKENKESKHKMSYSGRVKTLCLQKNTALWIGTGGGHILLLDLSTRRLIRVIYNFCNSVRVMMTAQLGSLKNVMLVLGYNRKNTEGTQKQKEIQSCLTVWDINLPHEVQNLEKHIEVRKELAEKMRRTSVE | – | 0.53 |
| LRRK2^RCKW (catalytic half of LRRK2: ROC, COR, kinase and WD40 domains), wild type, Q5S007 K1358A; K1359A (protein) KKAVPYNRMKLMIVGNTGSGKTTLLQQLMKTAASDLGMQSATVGIDVKDWPIQIRDKRKRDLVLNVWDFAGREEFYSTHPHFMTQRALYLAVYDLSKGQAEVDAMKPWLFNIKARASSSPVILVGTHLDVSDEKQRKACMSKITKELLNKRGFPAIRDYHFVNATEESDALAKLRKTIINESLNFKIRDQLVVGQLIPDCYVELEKIILSERKNVPIEFPVIDRKRLLQLVRENQLQLDENELPHAVHFLNESGVLLHFQDPALQLSDLYFVEPKWLCKIMAQILTVKVEGCPKHPKGIISRRDVEKFLSKKRKFPKNYMSQYFKLLEKFQIALPIGEEYLLVPSSLSDHRPVIELPHCENSEIIIRLYEMPYFPMGFWSRLINRLLEISPYMLSGRERALRPNRMYWRQGIYLNWSPEAYCLVGSEVLDNHPESFLKITVPSCRKGCILLGQVVDHIDSLMEEWFPGLLEIDICGEGETLLKKWALYSFNDGEEHQKILLDDLMKKAEEGDLLVNPDQPRLTIPISQIAPDLILADLPRNIMLNNDELEFEQAPEFLLGDGSFGSVYRAAYEGEEVAVKIFNKHTSLRLLRQELVVLCHLHHPSLISLLAAGIRPRMLVMELASKGSLDRLLQQDKASLTRTLQHRIALHVADGLRYLHSAMIIYRDLKPHNVLLFTLYPNAAIIAKIADYGIAQYCCRMGIKTSEGTPGFRAPEVARGNVIYNQQADVYSFGLLLYDILTTGGRIVEGLKFPNEFDELEIQGKLPDPVKEYGCAPWPMVEKLIKQCLKENPQERPTSAQVFDILNSAELVCLTRRILLPKNVIVECMVATHHNSRNASIWLGCGHTDRGQLSFLDLNTEGYTSEEVADSRILCLALVHLPVEKESWIVSGTQSGTLLVINTEDGKKRHTLEKMTDSVTCLYCNSFSKQSKQKNFLLVGTADGKLAIFEDKTVKLKGAAPLKILNIGNVSTPLMCLSESTNSTERNVMWGGCGTKIFSFSNDFTIQKLIETRTSQLFSYAAFSDSNIITVVVDTALYIAKQNSPVVEVWDKKTEKLCGLIDCVHFLREVMVKENKESKHKMSYSGRVKTLCLQKNTALWIGTGGGHILLLDLSTRRLIRVIYNFCNSVRVMMTAQLGSLKNVMLVLGYNRKNTEGTQKQKEIQSCLTVWDINLPHEVQNLEKHIEVRKELAEKMRRTSVE | 0.48 | – |

The next lines start with the values.

| response (fraction microtubule bound) (parent: est. 0.78) | response (fraction microtubule bound) (parent: est. 0.70) | Binder |
| --- | --- | --- |
| 0.35 | – | LRRK2^RCKW (catalytic half of LRRK2: ROC, COR, kinase and WD40 domains), wild type, Q5S007 R1384A; K1385A (protein) KKAVPYNRMKLMIVGNTGSGKTTLLQQLMKTKKSDLGMQSATVGIDVKDWPIQIRDKAARDLVLNVWDFAGREEFYSTHPHFMTQRALYLAVYDLSKGQAEVDAMKPWLFNIKARASSSPVILVGTHLDVSDEKQRKACMSKITKELLNKRGFPAIRDYHFVNATEESDALAKLRKTIINESLNFKIRDQLVVGQLIPDCYVELEKIILSERKNVPIEFPVIDRKRLLQLVRENQLQLDENELPHAVHFLNESGVLLHFQDPALQLSDLYFVEPKWLCKIMAQILTVKVEGCPKHPKGIISRRDVEKFLSKKRKFPKNYMSQYFKLLEKFQIALPIGEEYLLVPSSLSDHRPVIELPHCENSEIIIRLYEMPYFPMGFWSRLINRLLEISPYMLSGRERALRPNRMYWRQGIYLNWSPEAYCLVGSEVLDNHPESFLKITVPSCRKGCILLGQVVDHIDSLMEEWFPGLLEIDICGEGETLLKKWALYSFNDGEEHQKILLDDLMKKAEEGDLLVNPDQPRLTIPISQIAPDLILADLPRNIMLNNDELEFEQAPEFLLGDGSFGSVYRAAYEGEEVAVKIFNKHTSLRLLRQELVVLCHLHHPSLISLLAAGIRPRMLVMELASKGSLDRLLQQDKASLTRTLQHRIALHVADGLRYLHSAMIIYRDLKPHNVLLFTLYPNAAIIAKIADYGIAQYCCRMGIKTSEGTPGFRAPEVARGNVIYNQQADVYSFGLLLYDILTTGGRIVEGLKFPNEFDELEIQGKLPDPVKEYGCAPWPMVEKLIKQCLKENPQERPTSAQVFDILNSAELVCLTRRILLPKNVIVECMVATHHNSRNASIWLGCGHTDRGQLSFLDLNTEGYTSEEVADSRILCLALVHLPVEKESWIVSGTQSGTLLVINTEDGKKRHTLEKMTDSVTCLYCNSFSKQSKQKNFLLVGTADGKLAIFEDKTVKLKGAAPLKILNIGNVSTPLMCLSESTNSTERNVMWGGCGTKIFSFSNDFTIQKLIETRTSQLFSYAAFSDSNIITVVVDTALYIAKQNSPVVEVWDKKTEKLCGLIDCVHFLREVMVKENKESKHKMSYSGRVKTLCLQKNTALWIGTGGGHILLLDLSTRRLIRVIYNFCNSVRVMMTAQLGSLKNVMLVLGYNRKNTEGTQKQKEIQSCLTVWDINLPHEVQNLEKHIEVRKELAEKMRRTSVE |
| – | 0.1 | LRRK2^RCKW (catalytic half of LRRK2: ROC, COR, kinase and WD40 domains), wild type, Q5S007 R1731D; S2345D (protein) KKAVPYNRMKLMIVGNTGSGKTTLLQQLMKTKKSDLGMQSATVGIDVKDWPIQIRDKRKRDLVLNVWDFAGREEFYSTHPHFMTQRALYLAVYDLSKGQAEVDAMKPWLFNIKARASSSPVILVGTHLDVSDEKQRKACMSKITKELLNKRGFPAIRDYHFVNATEESDALAKLRKTIINESLNFKIRDQLVVGQLIPDCYVELEKIILSERKNVPIEFPVIDRKRLLQLVRENQLQLDENELPHAVHFLNESGVLLHFQDPALQLSDLYFVEPKWLCKIMAQILTVKVEGCPKHPKGIISRRDVEKFLSKKRKFPKNYMSQYFKLLEKFQIALPIGEEYLLVPSSLSDHRPVIELPHCENSEIIIRLYEMPYFPMGFWSRLINRLLEISPYMLSGRERALRPNDMYWRQGIYLNWSPEAYCLVGSEVLDNHPESFLKITVPSCRKGCILLGQVVDHIDSLMEEWFPGLLEIDICGEGETLLKKWALYSFNDGEEHQKILLDDLMKKAEEGDLLVNPDQPRLTIPISQIAPDLILADLPRNIMLNNDELEFEQAPEFLLGDGSFGSVYRAAYEGEEVAVKIFNKHTSLRLLRQELVVLCHLHHPSLISLLAAGIRPRMLVMELASKGSLDRLLQQDKASLTRTLQHRIALHVADGLRYLHSAMIIYRDLKPHNVLLFTLYPNAAIIAKIADYGIAQYCCRMGIKTSEGTPGFRAPEVARGNVIYNQQADVYSFGLLLYDILTTGGRIVEGLKFPNEFDELEIQGKLPDPVKEYGCAPWPMVEKLIKQCLKENPQERPTSAQVFDILNSAELVCLTRRILLPKNVIVECMVATHHNSRNASIWLGCGHTDRGQLSFLDLNTEGYTSEEVADSRILCLALVHLPVEKESWIVSGTQSGTLLVINTEDGKKRHTLEKMTDSVTCLYCNSFSKQSKQKNFLLVGTADGKLAIFEDKTVKLKGAAPLKILNIGNVSTPLMCLSESTNSTERNVMWGGCGTKIFSFSNDFTIQKLIETRTSQLFDYAAFSDSNIITVVVDTALYIAKQNSPVVEVWDKKTEKLCGLIDCVHFLREVMVKENKESKHKMSYSGRVKTLCLQKNTALWIGTGGGHILLLDLSTRRLIRVIYNFCNSVRVMMTAQLGSLKNVMLVLGYNRKNTEGTQKQKEIQSCLTVWDINLPHEVQNLEKHIEVRKELAEKMRRTSVE |
